Measurements published in US20070258992A1.

Target: mouse synaptosomes
Assay: inhibition of active BoNT/A binding to synaptosomes

inactive BoNT/A (formaldehyde-inactivated toxoid) (from UniProt P0DPI0 2-1296)
maximum inhibition: 98%
